According to the supplement of paper PMC9170038:

Tested on: MS2 coat protein
Assay: apparent KD of MS2 coat protein; designed switch direction (-1 OFF switch, 1 ON switch): -1; higher = weaker reporter binding
Outline: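 SNAP-549-labelled MS2 coat protein was titrated, doubling from 0.7 or 1.5 nM to 3 µM, over designed RNA switches transcribed on Illumina chips by stalled E. coli RNA polymerase. Runs were done without input, with 200 uM small-molecule ligand, or with an oligonucleotide input. Apparent KD is the per-design median over clusters of curve-fitted normalised fluorescence.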

[1] = Eterna round: R95, input ligand: FMN 200 uM
[2] = Eterna round: R95, input ligand: microRNA oligo, concentration not stated
[3] = Eterna round: R95, input ligand: none
[4] = input ligand: microRNA oligo, concentration not stated

Sequence | apparent KD of MS2 coat protein (input ligand: FMN 200 uM) | apparent KD of MS2 coat protein (input ligand: none) | apparent KD of MS2 coat protein [1] | apparent KD of MS2 coat protein [2] | apparent KD of MS2 coat protein [3] | apparent KD of MS2 coat protein [4]
UUAGCGUAUGUAAGGAUAUGCUGGUCUAAUGAUCAGCAGAAGGUACAUGAGGAUCACCCAUGUGGAUUCGUUAU [Mod of JL 8 - Jieux - Brourd's mod of Exclusion 4] (Eterna round: R97, puzzle: Brourd's mod of Exclusion 4) | 327 nM | 30 nM |  |  |  | 
GCCGUACAAGGAUAUCUAUCGCAAAACAUGAGGAUCACCCAUGUGUAUCCUAACCGGCGAAGAGAAGGUGUAGUUA [Letelabe] (Eterna round: R97, puzzle: Exclusion 5) | 24.4 nM | 18.1 nM |  |  |  | 
UAGUGGGUACGAAGGAGUUGUAUGAGCGGAGGCUCAGUGACAUGAGGAUCACCCAUGUAGCUUUUUGCUCGUCUUAA [JR_SV3TOV2_Sub038] (puzzle: Sensor v3, turn-off variant 2) |  |  | 35.7 nM | 109 nM | 32.4 nM | 
UUCGUGCAGCUUUGCUGUACGCGUACAUGAGGAUCACCCAUGUAGGAUAUGGUAGGCAAAGCUUACUAGAAGGAUAGAGUGAUC [Mat - Exclusion NG 3 - Mod of JL - D74] (Eterna round: R96, puzzle: Exclusion NG 3) | 277 nM | 122 nM |  |  |  | 92.8 nM
UAUAAGGUAGGAUAUACGAAUAAAUAGGGUAGAAUAAUAACACAUGAGGAUCACCCAUGUAGAAGGACCAAGAU [Mat - Exclusion 2 - Mod of my Tesla design - D29] (puzzle: Exclusion 2) |  |  | 44.5 nM | 20.5 nM | 24.8 nM | 
CGACCACAUGUAAACUGACACAUGAGGAUCACCCAUGUCAAGCUACGUUAGACUAAGCUCGCUACUACUCGUCUUAA [Eternabot (L2) Solution 4] (Eterna round: R97, puzzle: Sensor, turn-off variant 1) | 66.8 nM | 69.8 nM |  |  |  | 
UUUACAAGCUAUUGAUCCCACAUGAGGAUCACCCAUGUUGCUGCCGGUGACGGUAGCAUAACAAUUGCUCGUCUUAU [JL TOV1 3.56] (Eterna round: R97, puzzle: Sensor, turn-off variant 1) | 660 nM | 797 nM |  |  |  | 
GUACAUUUAGGAUAUACGGCAGCCAAUGCAAGGGUUCUAUAACAUGAGGAUCACCCAUGUAGAAGGAGAGGGCG [Eternabot (L2) Solution 21] (Eterna round: R97, puzzle: Exclusion 2) | 70.8 nM | 55.2 nM |  |  |  | 
GUCAUGUAAGGAUAUCUUACAUGUGACUUCGGUCACUGUCAAGAGAAGGUACAUGAGGAUCACCCAUGUUCGAC [Ex4-3: 52] (Eterna round: R96, puzzle: Exclusion 4) | 26.4 nM | 21 nM |  |  |  | 19.2 nM
GUCAGCUCGUGAGGAUAUACAUGCGUGCUUCGGCACGAAUUUAAGAUCACAUGAGGAUCACCCAUGUAGAAGGUACGAGCUGAU [ENG2/3-C2] (Eterna round: R96, puzzle: Exclusion NG 2) | 590 nM | 387 nM |  |  |  | 320 nM
GUGAAGUGAGGAUAUACGAGAGAGGCUGAACCUGGAGAGAAGUAGAAGGCACAUGAGGAUCACCCAUGUAAGGA [JR_Exclu4_Sub020] (puzzle: Exclusion 4) |  |  | 36.7 nM | 36.1 nM | 34.4 nM | 
AACCUGAGGCUUUGCUUUAGGUAUACAUGAGGAUCACCCAUGUAGGAUAUGGUAGGCUUUGCUUACCAGAAGGACAUGUUAAUU [JL ENG3 1.10] (Eterna round: R96, puzzle: Exclusion NG 3) | 136 nM | 44.2 nM |  |  |  | 41.7 nM
ACUGUUGCAGGAUAUAUGGUGCUAGACAUGAGGAUCACCCAUGUAGGCCUUGUCUAGCAGGUAGAAGGGCACCCAC [Eternabot (L1) Solution 94] (Eterna round: R97, puzzle: Exclusion 5) | 503 nM | 224 nM |  |  |  | 
AAAUCGGUAGAGGAUAUUGUACAGGAAACGGUGCAAGAAGGUUGCACAUGAGGAUCACCCAUGUUUAAUUGCGA [EX6 #50] (Eterna round: R97, puzzle: Exclusion 6) | 33.9 nM | 36.2 nM |  |  |  | 
AGUAACUAUCACGAAAGUGAUAGUUACAGCAAGUGAUAAACAUGAGGAUCACCCAUGUCCUCAUUUGCUCGUCUUAU [Sensor 3 - 12] (Eterna round: R96, puzzle: Sensor v3, turn-off variant 2) | 15 nM | 17.2 nM |  |  |  | 386 nM
AAUUUACAUGAGGAUCACCCAUGUCAGGAUAUGGUUUUAUUUUUUUCUUUUUUUGAUUCCAGAAGGGACAGUUA (puzzle: Exclusion 1) |  |  |  | 91.5 nM |  | 
GCUGCAAGAGGAUAUACAUGAGGAUCACCCAUGUGAAAUUAUAGUGAGGAAAUGAAAAGUAGAAGGCUUGUAGA [Mod of Mat 15 - Jieux - Exclusion 3] (Eterna round: R97, puzzle: Exclusion 3) | 86.6 nM | 38.1 nM |  |  |  | 
UUUAUGUCAGGAUAUGAGUAGUAGAACAAUAGUACUACUACUCAGAAGGGACAUGAGGAUCACCCAUGUGCCUC [Fiskers Ex 4 Super stable 44 mod 22] (puzzle: Exclusion 4) |  |  |  | 33.6 nM |  | 
CAUGAUUGGGAAGGAUAUUGACCUAGUUAGCGACGAGAAGGUCCCUGUCACAUGAGGAUCACCCAUGUGAAUCUGGUGAAAGAG [Ex NG1 #100] (Eterna round: R96, puzzle: Exclusion NG 1) | 29.8 nM | 24.2 nM |  |  |  | 20.4 nM
UAUCCUCAAGUGAGGAUAUGACGGUCAAGACGCGUUCAGAAGGCACAUGAGGAUCACCCAUGUGAUAAAGGAAU [Eternabot (L2) Solution 38] (Eterna round: R97, puzzle: Brourd's mod of Exclusion 4) | 91.7 nM | 20.6 nM |  |  |  | 
AUCAGUCUAGAGGAUAUGCUGGAUUAAUAUCUGGCAGAAGGCUGGACAUGAGGAUCACCCAUGUAAAUACUACC [Omei Ex6 A4] (Eterna round: R97, puzzle: Exclusion 6) | 156 nM | 55 nM |  |  |  | 
AGUACUAACACGAAAGUGUUAGUACAAUAAGCUUGUGAAACAUGAGGAUCACCCAUGUCCUCAUAAGCUCGUCUUAA [salish99_TOv2_r3_002] (puzzle: Sensor v3, turn-off variant 2) |  |  | 12.9 nM | 379 nM | 10.8 nM | 
AAGUACUACAAGCUUCGGGACAUGAGGAUCACCCAUGUUCGUCUUAUUGAUCUAGGUACGCUGACGUACCUAGAUCU [Mat - Sensor v3 - turn-off var 1 - JL Mod - D11] (puzzle: Sensor v3, turn-off variant 1) |  |  | 14.1 nM | 39.2 nM | 14.2 nM | 
CAGUACUGAGGAUAUACAUGAGGAUCACCCAUGUGAUCUAGUGCACGCGUACGUGUACGUAGAAGGCAGUACUG [JL 3.27 m3] (Eterna round: R97, puzzle: Exclusion 3) | 562 nM | 46.8 nM |  |  |  | 
UCAAGACAUGAGGAUCACCCAUGUCAGGAUAUCUAGGUUCGCUAUUUCAUUGUUAACGAGAGAAGGGACAUGAU [EX1 C.13] (Eterna round: R97, puzzle: Exclusion 1) | 22.9 nM | 18 nM |  |  |  | 
AUACCACGAGGAUAUCGUCUAUAUUACAUGAGGAUCACCCAUGUUAUAUUUGUAAUGUUUCGAGAAGGCGUGUUUU [JR_E5_Sub081] (puzzle: Exclusion 5) |  |  |  | 14.4 nM |  | 
UUUUGGCAAGCGAGAUCCUACAUGAGGAUCACCCAUGUUGACCAUGGUUUCCAUGGUCAUUUUGCUCGUCUUGUGUG [jl TITIN mod 2] (Eterna round: R97, puzzle: Sensor, turn-off variant 1) | 31.8 nM | 32.3 nM |  |  |  | 
GGUUUGGGAGGAUAUGGUUUUAAUAACAUGAGGAUCACCCAUGUAAAUAGAUCCUCGAGGCCAGAAGGCUCGGGCC [-24.9, -23.72 kcal, A 28%] (Eterna round: R97, puzzle: Exclusion 5) | 405 nM | 85.7 nM |  |  |  | 
GUGAAACAUGAGGAUCACCCAUGUCAGGAUAUGAUACUAUGUACUUCGGUACAUAGUAUCAGAAGGGACAGUGA [Ex1-3: 3] (puzzle: Exclusion 1) |  |  |  | 74.4 nM |  | 
CCCAGUUAGUGAGGAUAUCUUACAUGAGGAUCACCCAUGUAAUAAAUGAGGAUUUCGGGUGUCUAAGAGAAGGCACGGAUAGGC [Ostracism 25 - Jieux - Exclusion NG 2] (Eterna round: R96, puzzle: Exclusion NG 2) | 27.1 nM | 27 nM |  |  |  | 16.7 nM
